Test results taken from US20250034594A1, “RNA-GUIDED GENOME RECOMBINEERING AT KILOBASE SCALE” (THE BOARD OF TRUSTEES OF THE LELAND STANFORD JUNIOR …, priority 2021, published 2025).

What was measured:
Type in all cases: cell-based
[1] = tested on: gene editing with Cas9 and dCas9; assay: Screen of 322 new SSAP proteins, activity across all experiments (Cas9 and dCas9, Table 5); set-up: scale not given here
Summary of the method: (§1)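 Synthetic SSAP candidates, identified computationally, were tested in editing screens using both Cas9 and dCas9.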

[2] = tested on: gene editing with dCas9; assay: Screen of 322 new SSAP proteins, gene editing activity with dCas9 (Table 5); set-up: dCas9 with SSAP activity: scale not given here
Summary of the method: as §1

[3] = tested on: gene editing with Cas9; assay: Screen of 322 new SSAP proteins, gene editing activity with Cas9 (Table 5); set-up: Cas9 with SSAP activity: scale not given here
Summary of the method: as §1

| Molecule | Activity across all experiments [1] | dCas9 with SSAP activity [2] | dCas9 with SSAP activity (normalized) [2] | Cas9 with SSAP activity [3] | Cas9 with SSAP activity (normalized) [3] |
| --- | --- | --- | --- | --- | --- |
| SSAP_165: SEQ ID NO: 334; Robinsoniella sp. KNHs210 (protein, listed as Robinsoniella sp.) TTRTGNIKEELAKKAEGTNGDTRLTKAMSIADLIKAMEPEIKKALPEVITPERFTRMALSALNTTPKLRECTQISFLAAMMNAAQLGLEPNTPLGQAYLIPFNNKGTMECQFQIGYKGMIDLSYRNPQMQMISAQAVYENDEFKYELGLNPTLIHRPVLRGRGEVILFYGLFKLTNGGYGFEVMSKEEMDAYAKAYSKAIDSSFSPWKSNYNGMAKKTVIKQVLKYAPIKADFRKALSSDETIKNEISENMSEIHGEIIFDTDYMEESA | −1.538 | −2.157 | −0.568 | −0.918 | −0.925 |
| SSAP_32: SEQ ID NO: 201 (protein) EFETDEEEKEMSNNQLSTQQAKRDIAIDTSVWTFQDVKRYFDPQNLLTEKQVGQALSLIKGRNLNPLANEVYIVAYKKKTGGTEFSLIVSKEAFLKRAAQNPNYEGFEAGVVTVDTDGVMHERKGALMLPGDTLVGGWARVYRKNFKVPVEIFVSREEYDKKQSTWNAMPATMIRKTALVNALREAFPEDLGNMYTEDDGGETFDRIKQAEPVESREDVMARKMAQIEQMKQEQAQRQIDTSYPTDDVIDPDDEPAQGELLEDLEY | −1.308 | −2.180 | −0.281 | −0.435 | −1.203 |
| SSAP_68: SEQ ID NO: 237 (protein) TQQMPIEAQGEPTKELQQKAAVDRFNATLHQMQNEIARALPKHMTGDRFVRIVLTEVRKDPTLALCDPLTMFGSLLTAAALGLEPGLNGECWLVPRKNHGTLEAQLQVGYRGVVKLFWQNPAAAYLDTGYVCERDHFRFAKGLNPILEHTPAEGDRGKVVRYYAVAGLNTGARVFDVFTPAQIKTLRGGKVGSNGDIPDPEHWMERKTALLQVLKLMPKSTQLAAVPAADGRAHTISDAQQIFGGVDTSTGEVLEAEPVEGDAA | −0.560 | −2.230 | −0.296 | 1.110 | 4.696 |
| SSAP_101: SEQ ID NO: 270; Halomonadaceae bacterium R4HLG17 (protein, Halomonadaceae bacterium R4HLG17) SEVATQDTLGKELQQHSGQQKKPMPTTIQGMLKDPRFTSQIARALPKHITPDRITRIALTEVNKTPALGKCDPVTLFGSIIQSAQLGLELGGALGHAYLVPYGNQAQFIIGYRGMIDLARRSGQMVSLQAHTVHDNDEFDFEYGLDEKLRHVPARGDRGPMVAVYSVAKLVGGGHQIEVMWKEDVDAIRSKSKAGNSGPWRDHYEEMAKKTAIRRLFKYLPVSVEMQKAVALDEQAEAGVQDNNVFDGEFSYGEAE | −2.036 | −2.273 | −0.413 | −1.798 | −0.307 |
| SSAP_81: SEQ ID NO: 250 (protein) TDVKQELERKVGKQDSTAVRLTKNMSIPDMIKALEPEIRRALPAVLTPERFLRMALSAVNNTPKLAECTPMSFIAAMMNAAQLGLEPNTPLGQAYLIPYKNKNQLECQFQIGYKGIIDLAYRTGQMQMIQAHAVHEFDDFEYEYGLNPKLIHRPGDGNRGEITYFYGLFKLVNGGFGFEVMNREAMEAFAQQYSQSYGSQYSPWVKNFEDMAKKTVIKKALKYGPVKAEFQKAISMDETIKTEIAVDMTEVQNEESE | −2.308 | −2.360 | −0.367 | −2.257 | −0.341 |
| SSAP_274: SEQ ID NO: 443; Clostridium liquoris (protein, listed as Clostridium liquoris) TTASELKNQLATRKETGVGSAGNTVKGLLESPAIKKRFEEVLKQRAPQYMSSIVNLVNGDANLKKCDQMSVIASCMVAATLDLPVDKNLGYAWVVPYGNKAQFQLGYKGYVQLALRTGQYKSINVIEIHEGELIEWNPLTEELRIDFEKKKSDAIIGYAGYFELINGFRKSTYWTKEQITKHKNKFSKSDFGWKKDFDAMAKKTVLRNMLSKWGILSIEMQNAYTADQETIKSEVLETGNIKENVEYVEADFDVDFEGTPFEEGVTNE | −1.072 | −2.423 | −0.328 | 0.280 | 0.259 |
| SSAP_129: SEQ ID NO: 298; Lacrimispora indolis (protein, listed as Lacrimispora indolis) SDVKQELEKRAAGGGGQSQSVRLTKNMTIVDMVKALEPEIKRALPSILTPERFTRMALSAINNTPKLGECTPMSFIAALMNAAQLGLEPNTPLGQAYLIPYKNKGVLECQFQLGYRGLIDLAYRNERMQSVEAQVVYENDEFSYELGLHPSLIHRPSFDEPGEIRAFYAIFRLDNGGFRFEVMSKSYVDAYAARYSKAFTSDFSPWKSNYEGMAKKTVIKQLLKYAPMKSEFQKAVTMDETIKTELSVDMSEVSNQEVIDRELTEQVA | −1.200 | −2.431 | −0.313 | 0.031 | 0.019 |
| SSAP_145: SEQ ID NO: 314; Roseburia sp. CAG: 182 (protein, listed as Roseburia sp.) DVKEELAKMAEEKPTKKLTKSMSIQDMIKVIEPEIKKALPSVLTPERFTRMALSAINNTPKLAECSQISFLAALMNAAQLGLEPNTPLGQAYLIPFQNKGKLECQFQIGYKGIIELVYRNPLIQTIQAQVVYENDEFEYELGLNSRLFHRPALYDRGETVLFYALFKMSNGGYGFEVLSKQDMDAYAKRYSKGISSEYSPWKSNYEEMAKKTMIKKVLKYAPIRTDFQKAVSMDESIKKELSVDMSEVSNENIIDMEEITQEEE | −1.325 | −2.440 | −0.309 | −0.211 | −0.214 |
| SSAP_319: SEQ ID NO: 488; Helicobacter trogontum (protein, listed as Helicobacter trogontum) SNITTIQRKNEALALLENKEIQERLCALCGNEASKDKFKASLLNIALDSNLSACSMQSIVKASLDIAGLKLSLNKNLGKAYIVPRKVKIGNDYITEARIDIGYKGWLELAKRSKLSVKAHSVFDCDDFVYSVDGVDEYMKLTPNFELRQEHDSAWVKEHLKGIVVGIKDLKSGDSEVKFVSKGTLLKIMQKNDSVKNGKYSAYTDWLHEMLLAKAIKSCLSKTAMSEDTFYLIISNNKLFI | −0.883 | −2.508 | −0.276 | 0.742 | 1.773 |
| SSAP_54: SEQ ID NO: 223; Bet Pseudomonas phage PS-1 (protein, listed as Pseudomonas sp.) SNVATIKPSSLSARMAERFGVDPNEMMATLKATAFKGQVSDAQMQALLIVADQYGLNPWTKEIYAFPDKGGIVPVVGVDGWSRIINENGAFDGMDFQQDDESCTCIIYRKDRNHPIKVTEWMAECKRNTQPWQSHPKRMLRHKAMIQCARLAFGYTGIFDEDEAQRIVEKDVTPAVNEPDITPALEAIKNASSMEELHAAFKAAWNQHPSARARLTAVKDERKKALSEPIEGELVENEDGPAQQ | −1.264 | −2.517 | −0.565 | −0.011 | −0.061 |
| SSAP_242: SEQ ID NO: 411; Lactococcus sp. S-13 (protein, listed as Lactococcus sp.) SNQITKTQQTLKSPEVKAKFEEVLGKKADGFVASLLSVVGNSNLKTVEANSVMTAAMKAATLDLPIEPSLGFAYVIPYGREAQFQIGYKGFIQLALRSGQLTGLNCGIVYESQFVSYDPLFEELELDFTQQASGDAVGYFASMKLANGFKKVTYWSKEQVLAHKKKFVKSANGPWRDHFDAMAQKTVLKAMLTKYAPASIESKMIQTAITEDDSERFENAKDVTPDEPVISIDEPVTSEVSQNESSAESQEQFPEDEVEELFPIGKS | 2.999 | 3.640 | 2.062 | 2.358 | 1.579 |
| SSAP_314: SEQ ID NO: 483; Ferrimonas kyonanensis (protein, listed as Ferrimonas kyonanensis) NQMINEPDFVTALKDSRETYIDLTQNGGFNLNYGLEAGWAHQQIEASRYQNLDLTCSEPGSIMQAFCEAARLGLSFDPRKKHIYLMGQKDVQSGRTITILYVGYKGMIALACRTGFMIGGHADLVFEEDTFTYRSGTQLPVHEHDGRPNHERGRLKCGYVVAHQPGGMVKTLLVPKEVLLEAASNGLNAGGSNNTWCGPYMEMMYQKTCWRYAFNAWYSELEAVGMTQAQLESATTAVSYQ | −1.240 | −2.593 | −0.657 | 0.114 | 0.106 |
| SSAP_257: SEQ ID NO: 426; Listeria (multispecies) (protein, listed as Listeria sp.) ATNDELKNQLANKQNGGQVASAQSLDLKGLLEAPTMRKKFEKVLDKKAPQFLTSLLNLYNGDDYLQKTDPMTVVTSAMVAATLDLPIDKNLGYAWIVPYKGRAQFQLGYKGYIQLALRSGQYKSINVIEVREGELLKWNRLTEEIELDLDNNTSEKVVGYCGYFQLINGFEKTVYWTRKEIEAHKQKFSKSDFGWKKDYDAMAKKTVLRNMLSKWGILSIDMQTAVTEDEAEPRERKDVTEDESIPDIIDAPITPSDTLEAGSEVQGSMI | −1.217 | −2.649 | −1.189 | 0.216 | 0.821 |
